From patent US20220153847A1 (Chugai, published 2022)

Tests used:
[1] = target: T1, HLA-DQ2.5/33mer gliadin peptide complex on Ba/F3 cells (human); assay: FACS, Ba/F3 cells; IC17=0%, DQN0139bb=100%;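 further: flow cytometric binding of anti-HLA-DQ antibodies, each applied at 5 µg/mL for 30 min at room temperature, to Ba/F3 cell lines displaying HLA-DQ–peptide complexes; antibody tested at 5 microgram/mL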
T1 construct: whole, on cells; also called Ba/F3-HLA-DQ2.5/33mer gliadin
Description: (§1) The binding of anti-HLA-DQ antibodies to Ba/F3-HLA-DQ2.5, Ba/F3-HLA-DQ2.2, Ba/F3-HLA-DQ7.5, Ba/F3-HLA-DQ8, Ba/F3-HLA-DQ5.1, Ba/F3-HLA-DQ6.3, Ba/F3-HLA-DQ7.3, Ba/F3-HLA-DR, Ba/F3-HLA-DP, Ba/F3-HLA-DQ2.5/CLIP, Ba/F3-HLA-DQ2.5/HBV, Ba/F3-HLA-DQ2.5/Salmonella, Ba/F3-HLA-DQ2.5/TPO, Ba/F3-HLA-DQ2.5/M. bovis, Ba/F3-HLA-DQ2.5/alpha 1 gliadin, Ba/F3-HLA-DQ2.5/alpha 2 gliadin, Ba/F3-HLA-DQ2.5/gamma 1 gliadin, Ba/F3-HLA-DQ2.5/gamma 2 gliadin, Ba/F3-HLA-DQ2.5/omega 1 gliadin, Ba/F3-HLA-DQ2.5/omega 2 gliadin, Ba/F3-HLA-DQ2.5/BC hordein, Ba/F3-HLA-DQ2.5/alpha 3 gliadin, Ba/F3-HLA-DQ2.5/alpha 1b gliadin, Ba/F3-HLA-DQ2.5/gamma 4b gliadin, Ba/F3-HLA-DQ2.5/avenin 1, Ba/F3-HLA-DQ2.5/avenin 2, Ba/F3-HLA-DQ2.5/avenin 3, Ba/F3-HLA-DQ2.5/hordein 1, Ba/F3-HLA-DQ2.5/hordein 2, Ba/F3-HLA-DQ2.5/secalin 1, Ba/F3-HLA-DQ2.5/secalin 2, Ba/F3-HLA-DQ2.5/14mer 1, Ba/F3-HLA-DQ2.5/33mer gliadin, Ba/F3-HLA-DQ2.5/26mer gliadin, was tested. 5 microgram/mL of each of the anti-HLA-DQ antibodies was incubated with each cell line for 30 minutes at room temperature and washed with FACS buffer (2% FBS, 2 mM EDTA in PBS).

[2] = target: T2, HLA-DQ2.5/14mer 1 peptide complex on Ba/F3 cells (human); assay: FACS, Ba/F3 cells; IC17=0%, DQN0139bb=100%;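 further: flow cytometric binding of anti-HLA-DQ antibodies, each applied at 5 µg/mL for 30 min at room temperature, to Ba/F3 cell lines displaying HLA-DQ–peptide complexes; antibody tested at 5 microgram/mL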
T2 construct: whole, on cells; also called Ba/F3-HLA-DQ2.5/14mer 1
Description: as §1

[3] = target: T3, HLA-DQ2.5/omega 2 gliadin peptide complex on Ba/F3 cells (human); assay: FACS, Ba/F3 cells; IC17=0%, DQN0139bb=100%;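 further: flow cytometric binding of anti-HLA-DQ antibodies, each applied at 5 µg/mL for 30 min at room temperature, to Ba/F3 cell lines displaying HLA-DQ–peptide complexes; antibody tested at 5 microgram/mL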
T3 construct: whole, on cells; also called Ba/F3-HLA-DQ2.5/omega 2 gliadin; HLA-DQ2.5/w2 gliadin
Description: as §1

[4] = target: T4, HLA-DQ2.5/alpha 1b gliadin peptide complex on Ba/F3 cells (human); assay: FACS, Ba/F3 cells; IC17=0%, DQN0139bb=100%;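 further: flow cytometric binding of anti-HLA-DQ antibodies, each applied at 5 µg/mL for 30 min at room temperature, to Ba/F3 cell lines displaying HLA-DQ–peptide complexes; antibody tested at 5 microgram/mL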
T4 construct: whole, on cells; also called Ba/F3-HLA-DQ2.5/alpha 1b gliadin; HLA-DQ2.5/a1b gliadin
Description: as §1

[5] = target: T5, HLA-DQ2.5/gamma 4b gliadin peptide complex on Ba/F3 cells (human); assay: FACS, Ba/F3 cells; IC17=0%, DQN0139bb=100%
T5 construct: whole, on cells; also called Ba/F3-HLA-DQ2.5/gamma 4b gliadin; HLA-DQ2.5/g4b gliadin
Description: as §1

[6] = target: T6, HLA-DQ2.5/alpha 3 gliadin peptide complex on Ba/F3 cells (human); assay: FACS, Ba/F3 cells; IC17=0%, DQN0139bb=100%
T6 construct: whole, on cells; also called Ba/F3-HLA-DQ2.5/alpha 3 gliadin; HLA-DQ2.5/a3 gliadin
Description: as §1

[7] = target: T7, HLA-DQ2.5/secalin 2 peptide complex on Ba/F3 cells (human); assay: FACS, Ba/F3 cells; IC17=0%, DQN0139bb=100%
T7 construct: whole, on cells; also called Ba/F3-HLA-DQ2.5/secalin 2
Description: as §1

[8] = target: T8, HLA-DQ2.5/gamma 1 gliadin peptide complex on Ba/F3 cells (human); assay: FACS, Ba/F3 cells; IC17=0%, DQN0139bb=100%
T8 construct: whole, on cells; also called Ba/F3-HLA-DQ2.5/gamma 1 gliadin; HLA-DQ2.5/g1 gliadin
Description: as §1

[9] = target: T9, HLA-DQ2.5/secalin 1 peptide complex on Ba/F3 cells (human); assay: FACS, Ba/F3 cells; IC17=0%, DQN0139bb=100%
T9 construct: whole, on cells; also called Ba/F3-HLA-DQ2.5/secalin 1
Description: as §1

[10] = target: T10, HLA-DQ2.5/alpha 2 gliadin peptide complex on Ba/F3 cells (human); assay: FACS, Ba/F3 cells; IC17=0%, DQN0139bb=100%
T10 construct: whole, on cells; also called Ba/F3-HLA-DQ2.5/alpha 2 gliadin; HLA-DQ2.5/a2 gliadin
Description: as §1

[11] = target: T11, HLA-DQ2.5/avenin 1 peptide complex on Ba/F3 cells (human); assay: FACS, Ba/F3 cells; IC17=0%, DQN0139bb=100%
T11 construct: whole, on cells; also called Ba/F3-HLA-DQ2.5/avenin 1
Description: as §1

[12] = target: T12, HLA-DQ2.5/hordein 2 peptide complex on Ba/F3 cells (human); assay: FACS, Ba/F3 cells; IC17=0%, DQN0139bb=100%
T12 construct: whole, on cells; also called Ba/F3-HLA-DQ2.5/hordein 2
Description: as §1

HLA-DQ2.2 on Ba/F3 cells = target: T13, HLA-DQ2.2 on Ba/F3 cells (human, UniProt P01909 24-216, limits assumed); assay: FACS, Ba/F3 cells; IC17=0%, DQN0139bb=100%
T13 construct: whole, on cells; also called Ba/F3-HLA-DQ2.2
Description: as §1
T13 MHC II alpha: not shown
T13 MHC II beta: not shown

[13] = target: T14, HLA-DQ2.5/avenin 3 peptide complex on Ba/F3 cells (human); assay: FACS, Ba/F3 cells; IC17=0%, DQN0139bb=100%
T14 construct: whole, on cells; also called Ba/F3-HLA-DQ2.5/avenin 3
Description: as §1

[14] = target: T15, HLA-DQ2.5/CLIP peptide complex on Ba/F3 cells (human); assay: FACS, Ba/F3 cells; IC17=0%, DQN0139bb=100%
T15 construct: whole, on cells; also called Ba/F3-HLA-DQ2.5/CLIP
Description: as §1

[15] = target: T16, HLA-DQ2.5/BC hordein peptide complex on Ba/F3 cells (human); assay: FACS, Ba/F3 cells; IC17=0%, DQN0139bb=100%
T16 construct: whole, on cells; also called Ba/F3-HLA-DQ2.5/BC hordein
Description: as §1

[16] = target: T17, HLA-DQ2.5/gamma 2 gliadin peptide complex on Ba/F3 cells (human); assay: FACS, Ba/F3 cells; IC17=0%, DQN0139bb=100%
T17 construct: whole, on cells; also called Ba/F3-HLA-DQ2.5/gamma 2 gliadin; HLA-DQ2.5/g2 gliadin
Description: as §1

[17] = target: T18, HLA-DQ2.5/avenin 2 peptide complex on Ba/F3 cells (human); assay: FACS, Ba/F3 cells; IC17=0%, DQN0139bb=100%
T18 construct: whole, on cells; also called Ba/F3-HLA-DQ2.5/avenin 2
Description: as §1

[18] = target: T19, HLA-DQ2.5/hordein 1 peptide complex on Ba/F3 cells (human); assay: FACS, Ba/F3 cells; IC17=0%, DQN0139bb=100%
T19 construct: whole, on cells; also called Ba/F3-HLA-DQ2.5/hordein 1
Description: as §1

HLA-DQ7.5 on Ba/F3 cells = target: T20, HLA-DQ7.5 on Ba/F3 cells (human, UniProt P01909 24-216; P01920 33-230, limits assumed); assay: FACS, Ba/F3 cells; IC17=0%, DQN0139bb=100%
T20 construct: whole, on cells; also called Ba/F3-HLA-DQ7.5
Description: as §1

[19] = target: T21, HLA-DQ2.5/26mer gliadin peptide complex on Ba/F3 cells (human); assay: FACS, Ba/F3 cells; IC17=0%, DQN0139bb=100%
T21 construct: whole, on cells; also called Ba/F3-HLA-DQ2.5/26mer gliadin
Description: as §1

[20] = target: T22, HLA-DQ2.5/omega 1 gliadin peptide complex on Ba/F3 cells (human); assay: FACS, Ba/F3 cells; IC17=0%, DQN0139bb=100%
T22 construct: whole, on cells; also called Ba/F3-HLA-DQ2.5/omega 1 gliadin; HLA-DQ2.5/w1 gliadin
Description: as §1

HLA-DQ7.3 on Ba/F3 cells = target: T23, HLA-DQ7.3 on Ba/F3 cells (human, UniProt P01909 24-216; P01920 33-230, limits assumed); assay: FACS, Ba/F3 cells; IC17=0%, DQN0139bb=100%
T23 construct: whole, on cells; also called Ba/F3-HLA-DQ7.3
Description: as §1
T23 MHC II alpha: not shown
T23 MHC II beta: not shown

HLA-DQ8 on Ba/F3 cells = target: T24, HLA-DQ8 on Ba/F3 cells (human, UniProt P01909 24-216; P01920 33-230, limits assumed); assay: FACS, Ba/F3 cells; IC17=0%, DQN0139bb=100%
T24 construct: whole, on cells; also called Ba/F3-HLA-DQ8
Description: as §1
T24 MHC II alpha: not shown
T24 MHC II beta: not shown

[21] = target: DQ2.5/omega 2 gliadin peptide on IHW9023 cells (human); assay: cell-based or functional assay
[22] = target: DQ2.5/BC hordein peptide on IHW9023 cells (human); assay: cell-based or functional assay
[23] = target: DQ2.5/alpha 2 gliadin peptide on IHW9023 cells (human); assay: cell-based or functional assay
[24] = target: DQ2.5/gamma 1 gliadin peptide on IHW9023 cells (human); assay: cell-based or functional assay

T20 sequence (P01920 33-230 limits assumed, chain 2 of 4, other chains not shown): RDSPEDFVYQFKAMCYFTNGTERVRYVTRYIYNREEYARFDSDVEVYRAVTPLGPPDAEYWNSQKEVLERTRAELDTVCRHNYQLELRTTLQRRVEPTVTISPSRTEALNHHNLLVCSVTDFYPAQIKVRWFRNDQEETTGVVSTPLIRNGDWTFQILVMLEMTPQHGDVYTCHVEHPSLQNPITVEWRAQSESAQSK
T15 sequence (P04233 96-124, chain 2 of 2, other chains not shown): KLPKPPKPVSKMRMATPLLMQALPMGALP

B1: DQN0429cc (antibody, V domains shown)
VH: QEQLVESGGGLVQPEGSLTLTCTASGFSFSSSYYMCWVRQAPGKGLEWIGCIYTGSGSTDYATWVNGRFTISKTSSTTVTLQMTSLTVADTATYFCARDIGIDYNFWGPGTLVTVSS
VL: AFELTQTPSFVEARVGGTVTIKCQATQSISSYLNWYQQKPGQPPKLLIYYASTLASGVPSRFKGSGSGTEFTLTISGVECADAATYYCHYGISYVSFGGGTKVEIK
notes: also called DQN0492cc
% MFI [1]: 50.2% | % MFI [2]: 58.5% | % MFI [3]: 45.5% | % MFI [4]: 15.7% | % MFI [5]: 13.6% | % MFI [6]: 9.4% | % MFI [7]: 27.7% | % MFI [8]: 36.6% | % MFI [9]: 11.8% | % MFI [10]: 67.7% | % MFI [11]: 0.8% | % MFI [12]: 70.6% | % MFI (HLA-DQ2.2 on Ba/F3 cells): 0.7% | % MFI [13]: 0.1% | % MFI [14]: 0.2% | % MFI [15]: 26.4% | % MFI [16]: 6.2% | % MFI [17]: 2.9% | % MFI [18]: 4.5% | % MFI (HLA-DQ7.5 on Ba/F3 cells): 0.2% | % MFI [19]: 64% | % MFI [20]: 13.4% | % MFI (HLA-DQ7.3 on Ba/F3 cells): 0.2% | % MFI (HLA-DQ8 on Ba/F3 cells): 0.2% | IC50, Jurkat NFAT-Luc T cell activation [21]: 0.0215 µg/mL | IC50, Jurkat NFAT-Luc T cell activation [22]: 0.786 µg/mL | IC50, Jurkat NFAT-Luc T cell activation [23]: 0.00497 µg/mL | IC50, Jurkat NFAT-Luc T cell activation [24]: 0.235 µg/mL
